Biological target: AcoD, ATP-dependent DMSP lyase of Psychrobacter sp. D2 (Psychrobacter sp. D2)
Assay: SEC

stoichiometry N: 2
Substance: AcoD, ATP-dependent DMSP lyase of Psychrobacter sp. D2 (enzyme)
